Source: paper doi:10.1101/641969v1

B1: SaCntM (Staphylococcus aureus subsp. aureus Mu50) (protein)
chain: MSKLLMIGTGPVAIQLANICYLKSDYEIDMVGRASTSEKSKRLYQAYKKEKQFEVKIQNEAHQHLEGKFEINRLYKDVKNVKGEYETVVMACTADAYYDTLQQLSLETLQSVKHVILISPTFGSQMIVEQFMSKFSQDIEVISFSTYLGDTRIVDKEAPNHVLTTGVKKKLYMGSTHSNSTMCQRISALAEQLKIQLEVVESPLHAETRNSSLYVHPPLFMNDFSLKAIFEGTDVPVYVYKLFPEGPITMTLIREMRLMWKEMMAILQAFRVPSVNLLQFMVKENYPVRPETLDEGDIEHFEILPDILQEYLLYVRYTAILIDPFSQPDENGHYFDFSAVPFKQVYKNEQDVVQIPRMPSEDYYRTAMIQHIGKMLGIKTPMIDQFLTRYEASCQAYKDMHQDQQLSSQFNTNLFEGDKALVTKFLEINRTLS
B2: PaCntM (Pseudomonas aeruginosa PAO1) (protein)
chain: MNAADESLGNVLLVGLGAVAIQVALDLRRHGAGRLGALNHPGRRSQRIAEALARGACLQLEGQGQHRWLSGNAALDVFHQDPAELRDDWQTLVLCVPADSYLDVVRGLPWERLGGVRTLLLVSAFIGANLLVRSALPAGCQATVLSLSSYYAATKVIDETQPLRALTKAVKRRVYLGSSRPDCPARETWRRVLAGSGVEVVPLATPEAAEGRNVTTYVHSPFFLGEFALARILSEQGPPGFMYKLYPEGPITPGAIGAMRRLWCELSELLRRMGAEPLNLLRFLNDDNYPVHETMLPRASIDGFAEAGAERQEYLLFVRYAALLVDPFSPADEQGRHFDFSAVPFRRVSRDEDGLWRLPRVPLEDYRKLALIVALAAHFDLAMPQARSLLASYENAVSRFIDCQGASQCHPSLYPIDSRPAADAIYRQWCSTC

Columns and labels:
purified protein [1] = substrate: CC(=O)C(=O)O; assay: purified protein; assay type: biochemical, Staphylococcus aureus; conditions: 0.2 mM NADPH, 0.2 mM xNA, pH 7, 28 °C
purified protein [2] = substrate: O=C(O)CCC(=O)C(=O)O; assay: purified protein; conditions: 0.2 mM NADH, 0.2 mM yNA, pH 8, 28 °C

Protein | Km (purified protein [1]) [µM] | kcat (purified protein [1]) [s⁻¹] | Km (purified protein [2]) [µM] | kcat (purified protein [2]) [s⁻¹]
B1 | 51 ± 6 | 1.00 ± 0.02 | – | –
B2 | – | – | 133 ± 39 | 0.27 ± 0.02
